Patent US20020142429

Legend:
[1] = tested on: T1, amidated 16'mer peptide RKKFGESEKTKTKEFL
T1 sequence: RKKFGESEKTKTKEFL

[2] = tested on: peptides centered around the phosphorylation site of eEF-2

In the case of “recombinant eEF-2 kinase (as used in the peptide phosphorylation assay)”, the phosphoacceptor activity [1] is reported as “amidation of the peptide further stabilizes the α-helical structure, resulting in stronger phosphoacceptor activity” and the phosphorylation assays [2] is reported as “This strategy did not yield a peptide that was functional in phosphorylation assays (data not shown)”.
